Laboratory results as given in patent publication US20220282217A1 (BIONTECH US, published 2022).

B1: ALEEKKGNYV (peptide)
peptide: ALEEKKGNYV
notes: also called EGFRvIII (internal deletion)
B2: PLSDLLLEML (peptide)
peptide: PLSDLLLEML
notes: also called E5R1, Y537S (so in the source); ESR1, Y537S
B3: … (peptide)
peptide: LQMDFLVHPA
notes: likely a print error; also called APC, VHPA

biological target: T1, HLA class I molecule A02.01; assay: pMHC-I dissociation half-life, 125I-b2m
T1 construct: Purified MHC class I complex; also called HLA-A02:01
Protocol: (§1) Briefly, synthetic genes encoding biotinylated MHC-I heavy and light chains are expressed in E. coli and purified from inclusion bodies using standard methods. […] These reactions are carried out in streptavidin coated microplates to bind the biotinylated MHC-I heavy chains to the surface and allow measurement of radiolabeled light chain to monitor complex formation. Dissociation is initiated by addition of higher concentrations of unlabeled light-chain and incubation at 37° C. Stability is defined as the length of time in hours it takes for half of the complexes to dissociate, as measured by scintillation counts.

Binder	Stability (T1/2 (h))
LLPIPPLSPS (also called MYC, T58I)	0 h

biological target: HLA-A02.01 (human); assay: pMHC-I complex dissociation at 37 C, 125I-b2m, half-life
Protocol: as §1

Binder	Stability (T1/2 (h))
LIMQLMPFGC (also called EGFR, T790M)	0.4 h
B1	0 h
GLLLEMLDA (also called ESR1, D538G)	0.4 h
PLYGLLLEM (also called ESR1, D538G)	0.7 h
NVVPLYGLL (also called ESR1, D538G)	0 h
GVYTFLPST (also called ESR1, S463P)	1.3 h
TQISSATEYL (also called ABL1, M351T)	0 h
PLCDLLLEM (also called ESR1, Y537C)	0.8 h
PLNDLLLEM (also called ESR1, Y537N)	4.2 h
PLSDLLLEM (also called ESR1, Y537S)	2.7 h
NVVPLCDLLL (also called ESR1, Y537C)	0 h
NVVPLNDLLL (also called ESR1, Y537N)	0 h
NVVPLSDLLL (also called ESR1, Y537S)	0 h
PLCDLLLEML (also called ESR1, Y537C)	0.9 h
PLNDLLLEML (also called ESR1, Y537N)	0 h
B2	0 h
NVVPLCDLL (also called ESR1, Y537C)	0 h

Binder	Stability (T1/2 (h))
NVVPLNDLL (also called ESR1, Y537N)	0 h
NVVPLSDLL (also called ESR1, Y537S)	0 h
YIIIEFMTYG (also called ABL1, T315I)	0 h
IIIEFMTYG (also called ABL1, T315I)	0 h
VLTVTSTDV (also called FGFR3: TACC3)	1.1 h
IIIEFMTYGN (also called ABL1, T315I)	0 h
IIEFMTYGNL (also called ABL1, T315I)	0 h
KLGGGQHGEV (also called ABL1, Y253H)	0.4 h
ILMELMAGG (also called ALK, L1196M)	0.5 h
LMELMAGGDL (also called ALK, L1196M)	8.9 h
FILMELMAGG (also called ALK, L1196M)	0 h
ILMELMAGGD (also called ALK, L1196M)	0 h
VLLSVHLIV (also called APC, AVEW)	11 h
CLADVLLSV (also called APC, AVEW)	24 h
KVLQMDFLV (also called APC, VHPA)	6.4 h
B3	1.5 h

biological target: T1, HLA class I molecule A02.01; assay: competition with radiolabeled reference peptide on purified MHC I
Protocol: (§2) Peptides were incubated at varying concentrations with these complexes for 2 days, and the amount of remaining radiolabeled peptide bound to […] was measured using size exclusion gel-filtration.

Binder	IC50
VLPEPHLAL (also called GATA3 . . ; CSNH)	16 nM
AIQPVLWTT (also called GATA3 . . ; CSNH)	8.1 nM
LLDILDTAGL (also called KRAS, Q61L)	716 nM
LLQVTQTSFA (also called MLL2, . . ; LSPH)	677 nM
RLWHLLLQV (also called MLL2, . . ; LSPH)	1.3 nM
LQVTQTSFAL (also called MLL2, . . ; LSPH)	718 nM
RLWHLLLQVT (also called MLL2, . . ; LSPH)	50.9 nM
ALAPTLTHM (also called MLL2, . . ; LSPH)	59 nM
ALAPTLTHML (also called MLL2, . . ; LSPH)	39 nM
LIVSRTLLLV (also called MSH3(-1))	10900 nM
IVSRTLLLV (also called MSH3(-1))	12.7 nM
CLIVSRTLLL (also called MSH3(-1))	2010 nM
FLLALWECS (also called MSH3(-1))	93.2 nM
ALWECSLPQA (also called MSH3(-1))	9 nM
LLPEDTPPL (also called MSH6(+1))	2.8 nM
ILLPEDTPPL (also called MSH6(+1))	6.7 nM
ITAFFFCWI (also called NDUFC2 (-KCDT14)(+1))	7490 nM
ITAFFLLDI (also called NDUFC2 (-KCDT14)(-1))	78.7 nM
YITAFFLLDI (also called NDUFC2 (-KCDT14)(-1))	64.5 nM

biological target: HLA-A02.01 (human); assay: competition vs radiolabeled reference peptide on purified MHC I, gel filtration
Protocol: as §2

Binder	IC50
ALFFFFFET (also called C15ORF40(+1))	471 nM
FFFETKSCSV (also called C15ORF40(+1))	61.2 nM
FLSSWDYRRM (also called C15ORF40(+1))	324 nM
FKLFSCLSFL (also called C15ORF40(+1))	663 nM
VQWRSLGSL (also called C15ORF40(+1))	4730 nM
AQAGVQWRSL (also called C15ORF40(+1))	670 nM
MSVCFFFFSV (also called CNOT1(+1))	1710 nM
FFFSVIFST (also called CNOT1(+1))	4560 nM
SVCFFFFCYI (also called CNOT1(-1))	520 nM
B1	141 nM
KQWSSVTSL (also called EIF2B3(-1))	26.5 nM
ILIRKAMTV (also called EPHB2(-1))	19.5 nM
GLLLEMLDA (also called ESR1, D538G)	558 nM
PLYGLLLEM (also called ESR1, D538G)	640 nM
NVVPLYGLL (also called ESR1, D538G)	10500 nM
GVYTFLPST (also called ESR1, S463P)	779 nM
TQISSATEYL (also called ABL1, M351T)	2640 nM
PLCDLLLEM (also called ESR1, Y537C)	602 nM
PLNDLLLEM (also called ESR1, Y537N)	151 nM
PLSDLLLEM (also called ESR1, Y537S)	404 nM
NVVPLCDLLL (also called ESR1, Y537C)	1370 nM
NVVPLNDLLL (also called ESR1, Y537N)	4190 nM

Binder	IC50
NVVPLSDLLL (also called ESR1, Y537S)	741 nM
PLCDLLLEML (also called ESR1, Y537C)	2010 nM
PLNDLLLEML (also called ESR1, Y537N)	12000 nM
B2	6470 nM
NVVPLCDLL (also called ESR1, Y537C)	3030 nM
NVVPLNDLL (also called ESR1, Y537N)	2900 nM
NVVPLSDLL (also called ESR1, Y537S)	916 nM
YIIIEFMTYG (also called ABL1, T315I)	186 nM
IIIEFMTYG (also called ABL1, T315I)	779 nM
VLTVTSTDV (also called FGFR3: TACC3)	295 nM
IIEFMTYGNL (also called ABL1, T315I)	9700 nM
KLGGGQHGEV (also called ABL1, Y253H)	387 nM
ILMELMAGG (also called ALK, L1196M)	223 nM
LMELMAGGDL (also called ALK, L1196M)	311 nM
FILMELMAGG (also called ALK, L1196M)	1580 nM
ILMELMAGGD (also called ALK, L1196M)	3450 nM
VLLSVHLIV (also called APC, AVEW)	72 nM
CLADVLLSV (also called APC, AVEW)	219 nM
KVLQMDFLV (also called APC, VHPA)	11 nM
B3	68 nM
GLSISCTTL (also called β2M, . . ; MPAV)	114 nM
VLQRFRFTHV (also called β2M, . . ; SQIS)	107 nM
